Measurements taken from patent US20220049017A1 (KYMAB, published 2022).
Read-outs that look alike come from different tables or passages of the source.

Columns and labels:
human PCSK9 variant b [1] = molecular target: T1, human PCSK9 variant b (human, UniProt Q8NBP7 31-692); assay: ProteOn SPR, captured antibody, pH 7.6;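 note: antibodies captured via anti-human Fc on a GLC sensor chip, PCSK9 binding sensorgrams fitted to a 1:1 Langmuir model giving on and off rates, with KD derived from them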
T1 construct: also called Human PCSK9 var B; hPCSK9b
Protocol: (§1) The SPR runs were performed using a GLC chip (Bio-Rad) immobilised with anti-human Fc antibodies. The analyte human antibodies were captured on the chip surface at 2 ug/ml. […] The chip surface was regenerated using two injections of 10 mM Glycine pH 1.5 for 160 seconds at 30 μl/min. The sensorgrams were then fitted with a 1:1 model (Langmuir kinetic model) where ka and kd are fitted and KD was calculated by the ProteOn software.

human PCSK9 variant a [2] = molecular target: T2, human PCSK9 variant a (human, UniProt Q8NBP7 31-692); assay: ProteOn SPR, captured antibody, pH 7.6;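 note: antibodies captured via anti-human Fc on a GLC sensor chip, PCSK9 binding sensorgrams fitted to a 1:1 Langmuir model giving on and off rates, with KD derived from them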
T2 construct: also called Human PCSK9 var A; hPCSK9a
Protocol: as §1

mouse PCSK9 [3] = molecular target: T3, mouse PCSK9 (mouse, UniProt Q80W65 35-694, limits assumed); assay: ProteOn SPR, captured antibody, pH 7.6;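 note: antibodies captured via anti-human Fc on a GLC sensor chip, PCSK9 binding sensorgrams fitted to a 1:1 Langmuir model giving on and off rates, with KD derived from them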
T3 construct: also called mPCSK9; PCSK9 mouse
T3 sequence (Q80W65 35-694 limits assumed): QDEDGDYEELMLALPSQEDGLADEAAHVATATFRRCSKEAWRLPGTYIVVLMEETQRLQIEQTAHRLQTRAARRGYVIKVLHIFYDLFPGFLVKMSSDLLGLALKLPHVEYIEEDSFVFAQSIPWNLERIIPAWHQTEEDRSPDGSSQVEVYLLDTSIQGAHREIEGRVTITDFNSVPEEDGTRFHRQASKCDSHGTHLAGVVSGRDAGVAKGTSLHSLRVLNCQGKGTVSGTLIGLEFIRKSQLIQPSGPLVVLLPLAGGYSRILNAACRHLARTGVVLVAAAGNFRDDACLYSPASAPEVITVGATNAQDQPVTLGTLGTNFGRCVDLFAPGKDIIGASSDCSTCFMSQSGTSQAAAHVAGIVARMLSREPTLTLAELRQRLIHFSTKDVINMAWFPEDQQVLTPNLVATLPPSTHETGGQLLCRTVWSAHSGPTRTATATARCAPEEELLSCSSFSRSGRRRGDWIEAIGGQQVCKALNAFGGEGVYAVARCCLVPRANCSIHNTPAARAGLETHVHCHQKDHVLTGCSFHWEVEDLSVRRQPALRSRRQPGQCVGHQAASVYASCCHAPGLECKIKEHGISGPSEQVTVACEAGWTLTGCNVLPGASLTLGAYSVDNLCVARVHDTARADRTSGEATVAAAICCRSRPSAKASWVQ
Protocol: as §1

cynomolgus monkey PCSK9 [4] = molecular target: T4, cynomolgus monkey PCSK9 (cynomolgus monkey, UniProt A8T662 31-692 (Macaca nemestrina entry), limits assumed); assay: ProteOn SPR, captured antibody, pH 7.6;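 note: antibodies captured via anti-human Fc on a GLC sensor chip, PCSK9 binding sensorgrams fitted to a 1:1 Langmuir model giving on and off rates, with KD derived from them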
T4 construct: also called Cyno PCSK9; cynoPCSK9
T4 sequence (A8T662 31-692 limits assumed): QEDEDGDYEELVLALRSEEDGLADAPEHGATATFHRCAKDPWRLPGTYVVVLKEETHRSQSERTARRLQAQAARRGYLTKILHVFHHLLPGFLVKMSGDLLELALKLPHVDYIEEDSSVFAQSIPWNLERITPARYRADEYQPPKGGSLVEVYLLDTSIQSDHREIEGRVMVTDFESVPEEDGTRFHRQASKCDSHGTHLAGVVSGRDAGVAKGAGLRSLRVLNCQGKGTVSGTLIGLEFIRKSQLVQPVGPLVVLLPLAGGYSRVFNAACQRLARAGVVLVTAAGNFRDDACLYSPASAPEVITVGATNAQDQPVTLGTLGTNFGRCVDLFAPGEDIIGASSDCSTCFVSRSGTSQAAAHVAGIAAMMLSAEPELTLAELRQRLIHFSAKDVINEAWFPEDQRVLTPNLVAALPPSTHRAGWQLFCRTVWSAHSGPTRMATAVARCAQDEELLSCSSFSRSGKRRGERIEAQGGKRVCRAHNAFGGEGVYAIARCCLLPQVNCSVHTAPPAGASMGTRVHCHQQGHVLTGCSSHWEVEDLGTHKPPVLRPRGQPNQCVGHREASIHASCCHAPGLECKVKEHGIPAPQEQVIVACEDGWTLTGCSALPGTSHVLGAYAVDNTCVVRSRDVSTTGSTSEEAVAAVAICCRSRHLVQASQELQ
Protocol: as §1

[5] = molecular target: T5, human PCSK9 D374Y gain-of-function mutant (human, UniProt Q8NBP7 31-692); assay: ProteOn SPR, captured antibody, pH 7.6
T5 construct: It was AF647-labelled in the HepG2 cell-based assay and unlabelled in SPR; also called Human PCSK9 GOF; hPCSK9 GOF
Protocol: as §1

human PCSK9 reference [6] = molecular target: T6, human PCSK9 reference (human, UniProt Q8NBP7 31-692); assay: ProteOn SPR, captured antibody, pH 7.6
Protocol: as §1

[7] = molecular target: T5, human PCSK9 D374Y gain-of-function …; assay: cell-based or functional assay
[8] = molecular target: T5, human PCSK9 D374Y gain-of-function …; assay: cell-based or functional assay; remark: listed apart in the source
human PCSK9 variant b [9] = molecular target: T1, human PCSK9 variant b; assay: ProteOn SPR, captured antibody, pH 5.8;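 note: antibodies captured on a GLC chip coated with anti-human Fc, rate constants from a 1:1 Langmuir fit of the sensorgrams, Kd derived from the fitted rates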
Protocol: as §1

human PCSK9 variant a [10] = molecular target: T2, human PCSK9 variant a; assay: ProteOn SPR, captured antibody, pH 5.8;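 note: antibodies captured on a GLC chip coated with anti-human Fc, rate constants from a 1:1 Langmuir fit of the sensorgrams, Kd derived from the fitted rates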
Protocol: as §1

mouse PCSK9 [11] = molecular target: T3, mouse PCSK9; assay: ProteOn SPR, captured antibody, pH 5.8;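 note: antibodies captured on a GLC chip coated with anti-human Fc, rate constants from a 1:1 Langmuir fit of the sensorgrams, Kd derived from the fitted rates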
Protocol: as §1

cynomolgus monkey PCSK9 [12] = molecular target: T4, cynomolgus monkey PCSK9; assay: ProteOn SPR, captured antibody, pH 5.8;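 note: antibodies captured on a GLC chip coated with anti-human Fc, rate constants from a 1:1 Langmuir fit of the sensorgrams, Kd derived from the fitted rates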
Protocol: as §1

[13] = molecular target: T5, human PCSK9 D374Y gain-of-function …; assay: ProteOn SPR, captured antibody, pH 5.8
Protocol: as §1

human PCSK9 reference [14] = molecular target: T6, human PCSK9 reference; assay: ProteOn SPR, captured antibody, pH 5.8
Protocol: as §1

[15] = molecular target: T5, human PCSK9 D374Y gain-of-function …; assay: cell-based or functional assay; remark: listed apart in the source
[16] = molecular target: T5, human PCSK9 D374Y gain-of-function …; assay: cell-based or functional assay; remark: listed apart in the source
human PCSK9 variant b [17] = molecular target: T1, human PCSK9 variant b; assay: ProteOn SPR, captured antibody, pH 5.8; value is the lower detection limit
Protocol: as §1

[18] = molecular target: T5, human PCSK9 D374Y gain-of-function …; assay: as above
Protocol: as §1

human PCSK9 reference [19] = molecular target: T6, human PCSK9 reference; assay: as above
Protocol: as §1

human PCSK9 variant a [20] = molecular target: T2, human PCSK9 variant a; assay: ProteOn SPR, captured antibody, pH 5.8; value is the lower detection limit; pH 5.8
Protocol: as §1

human PCSK9 variant b [21] = molecular target: T1, human PCSK9 variant b; assay: ProteOn SPR, captured antibody, pH 5.8; KD cannot be accurately determined
Protocol: as §1

human PCSK9 variant a [22] = molecular target: T2, human PCSK9 variant a; assay: as above
Protocol: as §1

[23] = molecular target: T5, human PCSK9 D374Y gain-of-function …; assay: as above
Protocol: as §1

human PCSK9 reference [24] = molecular target: T6, human PCSK9 reference; assay: as above
Protocol: as §1

Binder	Kd (human PCSK9 variant b [1]) [nM]	koff (human PCSK9 variant b [1]) [s⁻¹]	kon (human PCSK9 variant b [1]) [M⁻¹ s⁻¹]	Kd (human PCSK9 variant a [2]) [nM]	koff (human PCSK9 variant a [2]) [s⁻¹]	kon (human PCSK9 variant a [2]) [M⁻¹ s⁻¹]	Kd (mouse PCSK9 [3]) [nM]	koff (mouse PCSK9 [3]) [s⁻¹]	kon (mouse PCSK9 [3]) [M⁻¹ s⁻¹]	Kd (cynomolgus monkey PCSK9 [4]) [nM]	koff (cynomolgus monkey PCSK9 [4]) [s⁻¹]	kon (cynomolgus monkey PCSK9 [4]) [M⁻¹ s⁻¹]	Kd [5] [nM]	koff [5] [s⁻¹]	kon [5] [M⁻¹ s⁻¹]	Kd (human PCSK9 reference [6]) [nM]	koff (human PCSK9 reference [6]) [s⁻¹]	kon (human PCSK9 reference [6]) [M⁻¹ s⁻¹]	Kd (mouse PCSK9 [11]) [nM]	Kd (cynomolgus monkey PCSK9 [12]) [nM]	other results
CL-148219 (antibody, V domains shown, NLT motif in heavy chain framework 3 confirmed N-glycosylated by mass spectrometry, Human antibody, captured through anti-human Fc in the SPR assay) VH: QVHLQESGPGLVKPSETLSLTCTVSGGSISSYYWSWIRQYPGKGLEWIGYISYSGSSNYNPSLKRRVTISRDTSKNQFSLNLTSVIAADTAVYYCARNLMIRGAYGMDVWGQGTTVTVSS VL: DTVMTQSPLSLPVTPGEPASISCRSSQSLLHSNGYNYLDWYLQKAGQSPQLLIYLGSNRASGVPDRFSGSVSGTDFTLKISRVEAEDVGIYYCMQALQTPFTFGPGTKVDIK	0.215	0.000225	1.05e+06	0.216	0.000234	1.08e+06	0.52	0.000411	791000	0.296	0.000284	958000	0.245	0.000233	949000	0.205	0.00023	1.13e+06	0.691	0.345	IC50 (read off the curve) [7]: ~4 nM; IC50 (read off the curve) [8]: ~3 nM; Kd (human PCSK9 variant b [9]): 0.412 nM; koff (human PCSK9 variant b [9]): 0.000378 s⁻¹; kon (human PCSK9 variant b [9]): 918000 M⁻¹ s⁻¹; Kd (human PCSK9 variant a [10]): 0.426 nM; koff (human PCSK9 variant a [10]): 0.000387 s⁻¹; kon (human PCSK9 variant a [10]): 908000 M⁻¹ s⁻¹; koff (mouse PCSK9 [11]): 0.000701 s⁻¹; kon (mouse PCSK9 [11]): 1.01e+06 M⁻¹ s⁻¹; koff (cynomolgus monkey PCSK9 [12]): 0.000336 s⁻¹; kon (cynomolgus monkey PCSK9 [12]): 975000 M⁻¹ s⁻¹; Kd [13]: 0.431 nM; koff [13]: 0.000391 s⁻¹; kon [13]: 908000 M⁻¹ s⁻¹; Kd (human PCSK9 reference [14]): 0.368 nM; koff (human PCSK9 reference [14]): 0.000374 s⁻¹; kon (human PCSK9 reference [14]): 1.02e+06 M⁻¹ s⁻¹
CL-148219 QLT mutant (antibody, V domains shown) VH: QVHLQESGPGLVKPSETLSLTCTVSGGSISSYYWSWIRQYPGKGLEWIGYISYSGSSNYNPSLKRRVTISRDTSKNQFSLQLTSVIAADTAVYYCARNLMIRGAYGMDVWGQGTTVTVSS VL: DTVMTQSPLSLPVTPGEPASISCRSSQSLLHSNGYNYLDWYLQKAGQSPQLLIYLGSNRASGVPDRFSGSVSGTDFTLKISRVEAEDVGIYYCMQALQTPFTFGPGTKVDIK	0.257	0.000221	862000	0.267	0.000229	856000	0.587	0.000352	600000	0.352	0.000256	728000	0.303	0.000219	721000	0.272	0.000226	833000	1.43	0.568	IC50 (read off the curve) [15]: ~2 nM; Kd (human PCSK9 variant b [9]): 0.694 nM; koff (human PCSK9 variant b [9]): 0.000421 s⁻¹; kon (human PCSK9 variant b [9]): 607000 M⁻¹ s⁻¹; Kd (human PCSK9 variant a [10]): 0.712 nM; koff (human PCSK9 variant a [10]): 0.000429 s⁻¹; kon (human PCSK9 variant a [10]): 602000 M⁻¹ s⁻¹; koff (mouse PCSK9 [11]): 0.000675 s⁻¹; kon (mouse PCSK9 [11]): 472000 M⁻¹ s⁻¹; koff (cynomolgus monkey PCSK9 [12]): 0.000331 s⁻¹; kon (cynomolgus monkey PCSK9 [12]): 584000 M⁻¹ s⁻¹; Kd [13]: 0.753 nM; koff [13]: 0.000456 s⁻¹; kon [13]: 606000 M⁻¹ s⁻¹; Kd (human PCSK9 reference [14]): 0.667 nM; koff (human PCSK9 reference [14]): 0.000415 s⁻¹; kon (human PCSK9 reference [14]): 622000 M⁻¹ s⁻¹
CL-148489 (antibody, V domains shown, Human antibody with a kappa light chain) VH: EVQLVESGGGLVQPGRSLRLSCTASGFTFADYVMHWVRQTPGKGLEWVSGISWNSYSINYADSVKGRFTISRDNAQNSLYLQMNSLRAEDTALYFCAKDITYDLLTGYNYNYGLDVWGQGTTVTVSS VL: DIVMTQTPLSLSVTPGQPASISCRSSQSLLHSDGKTYLYWYLQKPGQPPQLLIYEVSNRFSGVPDRFSGSGSGTDFTLKISRVEAEDVGLYYCMQSIQLPLTFGGGTKVEIK	0.193	0.000164	848000	0.175	0.000157	894000	2.69	0.00192	714000	0.0506	5.73e-05	1.13e+06	0.136	0.000129	947000	0.176	0.000163	924000	0.46	0.0924	koff (human PCSK9 variant b [17]): ≤ 1e-05 s⁻¹; koff [18]: ≤ 1e-05 s⁻¹; koff (human PCSK9 reference [19]): ≤ 1e-05 s⁻¹; koff (human PCSK9 variant a [20]): ≤ 1e-05 s⁻¹; Kd (human PCSK9 variant b [21]): < 0.00649 nM; Kd (human PCSK9 variant a [22]): < 0.008 nM; Kd [23]: < 0.0073 nM; Kd (human PCSK9 reference [24]): < 0.00667 nM; kon (human PCSK9 variant b [9]): 1.54e+06 M⁻¹ s⁻¹; kon (human PCSK9 variant a [10]): 1.25e+06 M⁻¹ s⁻¹; koff (mouse PCSK9 [11]): 0.000632 s⁻¹; kon (mouse PCSK9 [11]): 1.38e+06 M⁻¹ s⁻¹; koff (cynomolgus monkey PCSK9 [12]): 0.000121 s⁻¹; kon (cynomolgus monkey PCSK9 [12]): 1.31e+06 M⁻¹ s⁻¹; kon [13]: 1.37e+06 M⁻¹ s⁻¹; kon (human PCSK9 reference [14]): 1.5e+06 M⁻¹ s⁻¹
Alirocumab hIgG4PE (antibody, V domains shown) VH: EVQLVESGGGLVQPGGSLRLSCAASGFTFNNYAMNWVRQAPGKGLDWVSTISGSGGTTNYADSVKGRFIISRDSSKHTLYLQMNSLRAEDTAVYYCAKDSNWGNFDLWGRGTLVTVSS VL: not shown																					IC50 (read off the curve) [7]: ~2 nM

More lines, in order of falling Kd (mouse PCSK9 [3]), values ahead:

Kd (human PCSK9 variant b [1]) [nM]	koff (human PCSK9 variant b [1]) [s⁻¹]	kon (human PCSK9 variant b [1]) [M⁻¹ s⁻¹]	Kd (human PCSK9 variant a [2]) [nM]	koff (human PCSK9 variant a [2]) [s⁻¹]	kon (human PCSK9 variant a [2]) [M⁻¹ s⁻¹]	Kd (mouse PCSK9 [3]) [nM]	koff (mouse PCSK9 [3]) [s⁻¹]	kon (mouse PCSK9 [3]) [M⁻¹ s⁻¹]	Kd (cynomolgus monkey PCSK9 [4]) [nM]	koff (cynomolgus monkey PCSK9 [4]) [s⁻¹]	kon (cynomolgus monkey PCSK9 [4]) [M⁻¹ s⁻¹]	Kd [5] [nM]	koff [5] [s⁻¹]	kon [5] [M⁻¹ s⁻¹]	Kd (human PCSK9 reference [6]) [nM]	koff (human PCSK9 reference [6]) [s⁻¹]	kon (human PCSK9 reference [6]) [M⁻¹ s⁻¹]	Kd (mouse PCSK9 [11]) [nM]	Kd (cynomolgus monkey PCSK9 [12]) [nM]	Binder	other results
						0.889			0.145									1.26	0.164	CL-274711 (antibody, V domains shown, Human antibody with a kappa light chain, generated by immunising a PCSK9 knockout mouse) VH: QVQLQESGPGLVKPSQTLSLTCTVSGGSISSGGYYWSWIRQHPGKGLEWIGHIFYSGSTYYNPSLKSRVTISVDTSKNQFSLKLNSVTAADTAVYYCASEGGYYDIPDVWGQGTTVTVSS VL: EIVLTQSPATLSLSPGERATLSCRASQSVSNYLAWYQQKPGQAPRLLISDASNRATGIPARFSGSGSGTDFTLTISSLEPEDFAIYYCQQRSNWPLTFGGGTKVEIK	
0.091	0.000127	1.39e+06	0.0998	0.000136	1.37e+06	0.273	0.000257	941000	0.0984	0.000108	1.1e+06	0.0689	8.36e-05	1.21e+06	0.0929	0.000125	1.35e+06	0.103	0.0297	CL-274698 (antibody, V domains shown, Human antibody with a kappa light chain, derived from a PCSK9 knockout mouse) VH: QVQLQESGPGLVKPSGTLSLTCAVSGGSISSSKWWSWVRQPPGKGLEWIGETHYSGSTNYNPSLKSRVTISVDKSKNQFSLKLRSVTAADTAVYYCARVGATENFWGQGTLVTVSS VL: EIVLTQSPATLSLSPGERATLSCRASQSVFRYLAWYQQKPGQAPRLLIYDASTRATDIPARFSGSGSGTDFTLTISSLEPEDFAVYYCQQRSNWPPTFGQGTKVEIK	IC50 (read off the curve) [16]: ~4 nM; Kd (human PCSK9 variant b [9]): 0.0262 nM; koff (human PCSK9 variant b [9]): 4.19e-05 s⁻¹; kon (human PCSK9 variant b [9]): 1.6e+06 M⁻¹ s⁻¹; Kd (human PCSK9 variant a [10]): 0.0309 nM; koff (human PCSK9 variant a [10]): 4.81e-05 s⁻¹; kon (human PCSK9 variant a [10]): 1.56e+06 M⁻¹ s⁻¹; koff (mouse PCSK9 [11]): 0.000137 s⁻¹; kon (mouse PCSK9 [11]): 1.33e+06 M⁻¹ s⁻¹; koff (cynomolgus monkey PCSK9 [12]): 3.75e-05 s⁻¹; kon (cynomolgus monkey PCSK9 [12]): 1.26e+06 M⁻¹ s⁻¹; Kd [13]: 0.025 nM; koff [13]: 3.83e-05 s⁻¹; kon [13]: 1.53e+06 M⁻¹ s⁻¹; Kd (human PCSK9 reference [14]): 0.0286 nM; koff (human PCSK9 reference [14]): 4.6e-05 s⁻¹; kon (human PCSK9 reference [14]): 1.6e+06 M⁻¹ s⁻¹
